From patent publication US20150196533A1, “METHOD FOR CONCURRENT TREATMENT OF PAIN AND DEPRESSION” (The General Hospital Corporation, priority 2012, published 2015)

What was measured:
[1] = system: naive rats; assay: Intra-hippocampal microinjection in naive rats: nociceptive and depressive behavior; type: in vivo, rat; settings: 0.1 μg once daily x 7 d into the left hippocampus of naive rats
Procedure: Under brief isoflurane anesthesia, a guide cannula (26 gauge, Plasticsone) was implanted just above the hippocampus (AP: −3.6 mm; left: +2.0 mm from Bregma; depth: −4.0 mm from skin) (Paxinos, G., and Watson, C. 1998. The rat brain in stertaxic coordinates. New York: Academic Press). An injection needle (33 gauge, Plasticsone) was inserted through the guide cannula and drug solution or vehicle (0.5 μl) was slowly injected over 5 min using a Hamilton syringe. Locations of the cannula placement were confirmed at the time of tissue harvest (data not shown).
Animals were habituated to a test setting (30-min session) for three consecutive days. Thermal withdrawal threshold was assessed using the Hargreaves' apparatus and method (Hargreaves, K., et al., 1988. A new and sensitive method for measuring thermal nociception in cutaneous hyperalgesia. Pain 32:77-88). Mechanical withdrawal threshold was assessed using von Frey filaments (Tal, M., and Bennett, G. J. 1994. Extra-territorial pain in rats with a peripheral mononeuropathy: mechano-hyperalgesia and mechano-allodynia in the territory of an uninjured nerve. Pain 57:375-382).
FST was performed according to the original method by Porsolt et al (Porsolt, R. D., Le, P. M., and Jalfre, M. 1977. Depression: a new animal model sensitive to antidepressant treatments. Nature 266:730-732). The total duration of immobility (non-swimming) within a 5-min session was recorded as immobility scores (in seconds) and compared among groups.

[2] = system: IDO1 expression in Neuro2a cells; assay: IL-6 exposure of cultured Neuro2a cells: IDO1 expression and activity; type: cell-based; settings: 0.5 ng/ml for 24 hours
Procedure: Neuro2a cells were cultured in minimal essential (EAGLE) medium (Invitrogen) supplemented with 10% fetal bovine serum, 100 U/ml penicillin, and 100 μg/ml streptomycin (Invitrogen) in a humidified atmosphere of 5% CO2 and 95% air at 37° C. Cells were treated with 0.5 ng/ml IL-6 or vehicle and collected 24 hours later for assays (74).
Rats were anesthetized with pentobarbital (50 mg/kg, i.p.) and perfused transcardially with cold 0.9% saline (pH 7.4±0.1) followed by cold 4% paraformaldehyde in a phosphate buffer (PB, 0.1M, pH 7.4±0.1). Brains were removed and placed in the same fixative for post-fixation at 4° C. for 6 hours. For cryoprotection, the samples were kept with cold 30% sucrose in phosphate buffer saline (PBS) at 4° C. until samples sank to the bottom. Coronal brain sections (30 μm) were cut using a cryostat and then floated in PBS. Sections were blocked with 5% normal donkey serum in 0.3% Triton X-100/PBS for 1 hour at room temperature. Free floating sections were incubated overnight at 4° C. on a rocker with one of the following primary antibodies: 1:100, IDO1 rabbit polyclonal (Santa Cruz Biotechnology Inc.); 1:1,000, NeuN mouse monoclonal (Chemicon); 1:1,000, GFAP mouse monoclonal (BD Bioscience Pharmingen); 1:1,000, Iba-1 mouse monoclonal (Abcam). Sections were then washed with PBS three times and incubated with 1:300 FITC- or cyanine3-conjugated secondary antibody (JacksonlnununoResearch Laboratories Inc) for 1 hour at room temperature. Blue fluorescent DAPI (1:300; Invitrogen) was used to stain the nucleus of fixed cultured Neuro2a cells for 15 minutes.
Rats were sacrificed under pentobarbital anesthesia. The hippocampus was separated from the brain and immediately stored on dry ice and kept at −80° C. until use. Samples were homogenized in a lysis buffer with SDS containing a cocktail of proteinase inhibitors (Roche). Samples were separated on an SDS-PAGE gel (4%-15% gradient gel; Bio-Rad) and transferred to polyvinylidene difluoride filter (PVDF) membranes (Millipore). Membranes were blocked with 5% nonfat dried milk for 1 hour at room temperature and incubated over night at 4° C. on a rocker with one of following primary antibody: 1:200 IDO1 (Santa Cruz Biotechnology Inc.; rabbit polyclonal antibody), 1:200 IDO1 (Novius Biologicals; rabbit polyclonal antibody), 1:500 JAK2 (Santa Cruz Biotechnology Inc.; rabbit polyclonal antibody), 1:1,000 STAT3 (Millipore; rabbit polyclonal antibody), 1:5,000 p-STAT3 (Abcam; rabbit monoclonal antibody). After membranes were washed with PBS×4, membranes were incubated with 1:8,000 HRP conjugated secondary antibody (Amersham, Biosciences) for 1 hour at room temperature on a rocker. The membranes were washed with PBS×4 and blots were visualized in enhanced Chemiluminescent (ECL) solution (Pierce) for 5 minutes and exposed to hyperfilms (Kodak) for 15 minutes. Blots were again incubated in a Stripping buffer (Pierce) for 15 minutes at room temperature on a rocker and reprobed with 1:12,000 anti-β-actin antibody (Abeam Inc.) as a loading control. Western blots were made in triplicates. Band density was measured and normalized against a loading control band.
Total RNA was isolated from hippocampal samples using TRIzol reagent (Invitrogen). Four μg of total RNA was used to synthesize the first strand cDNA using SuperScript III kit (Invitrogen). Four μl of cDNA was put into 20 μl vessel with 1 μl of 20× TaqMan Gene Expression Assay. Taqman Gene Expression Assays (Applied Biosystems) containing primers and a Taqman probe were used to quantify each gene of interest. The genes examined were IL-6 (Rn01410330 m1, M26744.1) and IDO1 (Rn00576778 m1, AF312699.1) for rats and IL-6 (Mm00446190 m1, X54542.1) and IDO1 (Mm00492586 m1, M69109.1) for mice. The reaction was performed in duplicate with the following conditions: denaturing at 95° C. for 30 s, annealing at 60° C. for 2 min, extension at 68° C. for 2 min for 40 cycles using a 7300 Real-Time PCR System (Applied Biosystems). […]

B1: IL-6: exogenous IL-6 (recombinant rat IL-6), proinflammatory cytokine (protein, UniProt P20607 25-211, looked up)
Interleukin-6: FPTSQVRRGDFTEDTTHNRPVYTTSQVGGLITYVLREILEMRKELCNGNSDCMNSDDALSENNLKLPEIQRNDGCFQTGYNQEICLLKICSGLLEFRFYLEFVKNNLQDNKKDKARVIQSNTETLVHIFKQEIKDSYKIVLPTPTSNALLMEKLESQKEWLRTKTIQLILKALEEFLKVTMRSTRQT
depressive behavior in forced swimming test (FIG. 9G) ([1]; P<0.001): induced depressive behavior in forced swimming test | thermal hyperalgesia on the right hindpaw (FIG. 9F) ([1]; P<0.01): induced | mechanical allodynia on the right hindpaw (FIG. 9E) ([1]; P<0.05 vs vehicle): induced | IDO1 immunoreactivity (FIG. 8A) [2]: increased | IDO activity [KYN/TRP ratio and 5-HT/TRP ratio] [2]: increased | kynurenine/tryptophan ratio (HPLC; FIG. 8D) ([2]; P<0.05): increased kynurenine/tryptophan ratio | serotonin/tryptophan ratio (HPLC; FIG. 8E) ([2]; P<0.05): decreased serotonin/tryptophan ratio | IDO1 mRNA expression (real-time PCR; FIG. 8B) ([2]; P<0.05 vs vehicle): significantly increased | IDO1 protein expression (Western blot; FIG. 8C) ([2]; P<0.05 vs vehicle): significantly increased
